Source: US20230287369A1, “A NEW, NON-SPECIFIC THERMOLABILE NUCLEASE ACTIVE AT LOW TEMPERATURE, IN WIDE PH RANGE AND HIGH CONCENTRATION IN SALTS” (Blirt S.A., priority 2019, published 2023)

What was measured:
Type in all cases: biochemical
[1] = test system: herring sperm genomic DNA; assay: Nucleolytic activity of PPR, HL-SAN, Benzonase nucleases in buffers of varied salt concentration and pH
Description: FIG. 6—showing the comparison of nucleolytic activity values of PPR, HL-SAN and Benzonase® nucleases in buffers of various NaCl concentrations (0, 250, 500 mM), in pH 7.0, 8.0, 9.0, respectively. The remaining reaction conditions are as follows: temperature 22° C., 50 mM Tris, 20 mM MgCk (5 mM MgCk used for Benzonase®). […] The advantage of PPR over the HL-SAN nuclease, whose characteristics are the most similar, increases in correlation with decreasing pH (7.0-8.0).
(§1) In order to determine PPR nuclease specific activity serial dilutions of the enzyme are incubated in a reaction buffer containing 20 mM Tris-HCl (pH 8.0), 20 mM MgCh and 100 pg of herring sperm genomic DNA of 300 m ? volume at 37° C. for 30 min. The reaction is stopped by adding 300 m ? 4% solution of perchloric acid to 2% final concentration and sample incubation on ice for 60 min. As a control, 100 pg DNA is incubated without the addition of nuclease. Afterwards, the samples are centrifuged for 10 minutes until separation of the precipitate of non-degraded DNA. The content of free nucleotides and oligonucleotide fragments smaller than 10 bp is determined in supernatant by measuring absorbance at 260 nm wavelength. 1 U nuclease activity is determined as enzyme quantity causing increase of absorbance in the studied sample at 260 nm wavelength of 1.0 within 30 minutes of reaction at 37° C. […]

[2] = test system: herring sperm genomic DNA; assay: Nucleolytic (specific) activity of PPR nuclease, modified Kunitz's test: effect of pH, temperature and Mg2+
Description: FIG. 2—showing pH influence on PPR nucleolytic activity depending on NaCl salt concentration. Measurement using modificated Kunitz's test, conditions: 20 mM MgCh, temperature of 22° C.
FIG. 3—showing temperature and high salts (500 mM NaCl+100 mM MgCL) influence on PPR nucleolytic activity. Measurement using modificated Kunitz's test.
FIG. 4—showing influence of Mg^2, ions on PPR nucleolytic activity in selected pH and temperature conditions. Maximum PPR activity is obtained at 50-150 mM concentration at 37° C. in a pH 8.0 buffer.
(§2) In order to determine PPR nuclease specific activity serial dilutions of the enzyme are incubated in a reaction buffer containing 20 mM Tris-HCl (pH 8.0), 20 mM MgCh and 100 pg of herring sperm genomic DNA of 300 m ? volume at 37° C. for 30 min. The reaction is stopped by adding 300 m ? 4% solution of perchloric acid to 2% final concentration and sample incubation on ice for 60 min. As a control, 100 pg DNA is incubated without the addition of nuclease. Afterwards, the samples are centrifuged for 10 minutes until separation of the precipitate of non-degraded DNA. The content of free nucleotides and oligonucleotide fragments smaller than 10 bp is determined in supernatant by measuring absorbance at 260 nm wavelength. 1 U nuclease activity is determined as enzyme quantity causing increase of absorbance in the studied sample at 260 nm wavelength of 1.0 within 30 minutes of reaction at 37° C.
In order to determine optimal pH for enzyme nucleolytic activity reaction is conducted as described in Example 4. The solutions of pH 6.0-10.0 with 1 U enzyme in reaction mixtures containing 0, 250, 500 mM NaCl, respectively.
The determination of the optimal temperature for enzyme nucleolytic activity reaction is performed as described in Example 4 at various temperatures from 6° C. to 45° C. with 1 U enzyme in the reaction mixture containing 50 mM Tris, pH 8.0 and variable concentrations of MgCh (5 mM and 100 mM). […] It needs to be highlighted that in these conditions 100% of standard activity may be obtained in refrigerated conditions at 6° C., by applying the relevant salt concentration: NaCl (500 mM) and MgCh (100 mM).
To determine the effects of Mg^2+ ion concentration on PPR nucleolytic activity reaction is performed as described in Example 4 in solutions of varied content of Mg^2+ ions; 5 mM to 200 mM with 1 U enzyme in the reaction mixture. […] In all observed ranges of MgCh (5-200 mM) PPR concentrations show high specific activity.

pUC19 plasmid DNA [3] = assay: Thermal inactivation of PPR enzymatic activity in the presence of DTT, plasmid DNA degradation on agarose gel; details: incubation for 15 minutes in the presence of 1-5 mM DTT
Description: FIG. 5—showing PPR inactivation in various temperature conditions in the presence of 5 mM DTT. Complete PPR inactivation is obtained at 52° C.
(§3) In order to determine PPR nuclease nucleolytic activity serial dilutions of the enzyme are incubated in a reaction buffer containing 20 mM Tris-HCl (pH 8.0), 20 mM MgCb and 1 pg pUC19 plasmid DNA of 20 m ? volume for 10 min. The reaction is stopped by adding 5 m ? 25 mM DTT solution to a final concentration of 5 mM and the sample is heated to 55° C. for 10 min. As a control, 1 pg of pUC19 plasmid DNA is incubated without the addition of nuclease. Subsequently, the samples are loaded onto a 1% agarose gel and DNA separation is performed in gel at 130 voltage for 40 min. The remaining, nondegraded DNA in gel is stained with ethidium bromide and documented by taking a photography of the gel. 1 U activity is determined as the enzyme quantity essential for total degradation of 1 pg of pUC19 plasmid DNA in 10 min. at 37° C.
To determine the parameters of PPR nuclease inactivation series of 0.2 ml test probes for PCR are prepared containing 100 U PPR in a 50 m ? reaction buffer containing 5 mM DTT, as described in Example 4A, excluding pUCIO plasmid DNA. Afterwards, the probes are incubated for 15 minutes at relevant temperatures and then for 5 minutes on ice. […] The degree of plasmid DNA degradation in the trials is analyzed on an agarose gel.

[4] = test system: herring sperm genomic DNA; assay: Nucleolytic activity of PPR, HL-SAN, Benzonase nucleases in PBS and TBS buffers; details: PBS, TBS and TBS with 500 mM NaCl; 6° C., 22° C. and 37° C.
Description: FIG. 8—showing the comparison of values of the PPR, HL-SAN and Benzonase® nucleases' nucleolytic activities in buffers with similar physiological salt concentration (PBS and TBS) with the addition of 500 mM NaCl, commonly used in the methodology of recombinant protein purification.
as §1

pUC19 plasmid DNA [5] = assay: Effects of potential inhibitors (salts, urea, imidazole) on PPR nucleolytic activity
Description: as §3, §2
To determine the scope of enzyme tolerance to popular ion components used in the preparation of recombinant proteins, present in the reaction buffer, a nucleolytic reaction is performed as described in Example 4 in solutions of various amounts of individual potential inhibitors: NaCl, urea, ammonium sulphate, imidazole. The PPR nuclease retains high nucleolytic activity in the presence of increased concentrations of tested substances, as shown in Table 1.

[6] = test system: herring sperm genomic DNA; assay: Nucleolytic activity of PPR, HL-SAN, Benzonase nucleases in DMEM medium
Description: FIG. 7—showing the comparison of values of the PPR, HL-SAN and Benzonase® nucleases' nucleolytic activities in DMEM medium, commonly used for mammalian in vitro cell culture, in which recombinant proteins, virus vectors and other biological therapeutics are produced.
as §2
Determination of the nucleolytic activity of PPR, HL-SAN and Benzonase® nucleases are performed as described in Example 4 at various temperatures: 6° C., 22° C. and 37° C. but instead of a reaction buffer DMEM medium (commonly used in cultures of mammalian cells, e.g. CHO, HEK, for the production of recombinant proteins and virus vectors) is used. […] At 37° C. […] The activity for every enzyme in conditions recommended by the manufacturer was assumed as 100% activity.

B1: PPR nuclease: non-specific nuclease that is the subject matter of the invention of SEQ ID NO: 2; thermolabile, recombinant, produced in E. coli (protein)
chain: MKYLLPTAAAGLLLLAAQPAMAASMEHHHHHHGSENLYFQSAPPSSFSKAKRLAVEIYQDHPTSFYCGCAITWQGKKGLPDLASCGYEVRKQEKRANRIEWEHVVPAENFGRAFVEWREGHPQCVNSKGKAYKGRSCATKMNPTYRSMQADLHNLTPAVGEVNGDRSNYAFLPWNGNNGAFYGQCDMKIDFKNRRADPPEQSRGAIARTYLYMNQEYKMALSSQQRQLMEAWNRQYPISTWECERDRRIANIQDNHNSFVLQACKKAGY
[1]; 250 and 500 mM NaCl, pH 7.0, 8.0 and 9.0, 22° C., 50 mM Tris, 20 mM MgCl2
  nucleolytic activity compared with the other tested nucleases: highest nucleolytic activity of all tested nucleases
[1]; lower pH (7.0, 8.0) and ambient temperature (22° C.)
  nucleolytic activity compared with HL-SAN and Benzonase: significantly more active
[2]; 500 mM NaCl, tested pH 6.0-10.0 at 0, 250, 500 mM NaCl, 20 mM MgCl2, 22° C., 1 U enzyme
  pH of highest nucleolytic activity: 8.0
[2]; 6° C. to 45° C., 50 mM Tris, pH 8.0
  nucleolytic activity over tested temperature range: maintains nucleolytic activity in the whole range of the tested temperatures
[2]; MgCl2
  MgCl2 concentration range with high specific activity / enzyme active: 5 to 200 mM
[2]; NaCl (500 mM) and MgCl2 (100 mM), 50 mM Tris, pH 8.0, tested 6° C. to 45° C.
  temperature of highest nucleolytic activity: 37 °C
[2]; pH 6.5
  Mg2+ concentration of highest nucleolytic activity: 20 mM
[2]; pH 6.5 buffer, ambient temperature (22° C.)
  optimum Mg2+ concentration range for nucleolytic activity: 20 to 50 mM
[2]; pH 8.0
  Mg2+ concentration of highest nucleolytic activity: 150 mM
[2]; pH 8.0 buffer, 37° C.
  optimum Mg2+ concentration range for nucleolytic activity: 50 to 150 mM
[2]; refrigerated conditions at 6° C., NaCl (500 mM) and MgCl2 (100 mM)
  nucleolytic activity relative to standard activity: 100 % of standard activity
pUC19 plasmid DNA [3]
  temperature of irreversible inactivation: 52 °C
[4]
  nucleolytic activity compared with the other tested enzymes: highest nucleolytic activity of all tested enzymes
pUC19 plasmid DNA [5]; Ammonium sulphate
  Non-inhibiting concentration: 0 to 200 mM
pUC19 plasmid DNA [5]; Imidazole
  Non-inhibiting concentration: 0 to 400 mM
pUC19 plasmid DNA [5]; NaCl/KCl
  Non-inhibiting concentration: 0 to 1400 mM
pUC19 plasmid DNA [5]; Urea
  Non-inhibiting concentration: 0 to 6000 mM
[6]; 37° C.
  nucleolytic activity relative to Benzonase nuclease: six times more active
[6]; all tested temperatures (6° C., 22° C., 37° C.)
  nucleolytic activity compared with the other tested enzymes: highest nucleolytic activity of all tested enzymes
[6]; refrigerated conditions (6° C.) and ambient temperature (22° C.)
  nucleolytic activity relative to HL-SAN and Benzonase: approx three times more active
